Measured values published in paper PMC1933581.

Experiments:
[1] = system: Rev (D36) (HIV-1, SBBC subject D36); test: EMSA; conditions: 10 mM HEPES/KOH pH 7.6, 150 mM KCl, 2 mM MgCl2, 0.5 mM EGTA, 1 mM DTT, 20% glycerol, 3.2 ug E. coli tRNA in 10 ul; excess RNA, protein 0-0.50 uM; 10 min on …
[2] = system: Rev (C64) (HIV-1, SBBC subject C64); test: EMSA; conditions: 10 mM HEPES/KOH pH 7.6, 150 mM KCl, 2 mM MgCl2, 0.5 mM EGTA, 1 mM DTT, 20% glycerol, 3.2 ug E. coli tRNA in 10 ul; excess RNA, protein 0-0.50 uM; 10 min on …

Q: Which results are given for RRE riboprobe?
A: binding signal (% reduction vs NL4-3 Rev) [1]: 90; binding signal (% reduction vs NL4-3 Rev) [2]: 90
